Substitutions are numbered along the chain they refer to. Names may count otherwise.

The target in assay [1] is T1, human factor D (human, UniProt P00746 26-253).
T1 construct: It is treated here as the same human factor D; also called fD
Kind of assay: SPR total binding to fD over time; Fab 100 mg/mL in PBS, 37 C, 10 weeks (FIG. 2B).

The target of assay [2] is T1, human factor D. As to the kind of experiment: SPR Biacore T200, Fab captured by anti-huFab, human fD injected, 25 C. As for the experimental part:
Antibody Fab fragments were immobilized on a Series S CM5 sensor chip using the anti-huFab capture kit (GE healthcare Cat. #28-9583-25) following a protocol described by the manufacturer. Kinetics of binding were calculated from sensorgrams recorded for injection of 60 μL aliquots of solutions of human factor D varied in concentration from 0.39 nM to 25 nM in 2-fold increments. The flow rate was 30 μL/minute, the running buffer was HBS-P+, the temperature of analysis was 25° C., real-time reference cell subtraction was employed, and dissociation following factor D injection was followed for 10 minutes. After subtraction of the sensorgram observed for injection of running buffer, data were analyzed according to a 1:1 model using BiaEval software v4.1 (GE Healthcare) to extract the kinetics and affinity constants.

Assay [3] concerns the target T1, human factor D. Kind of assay: SPR total binding to fD over time; Fab 10 mg/mL in pH 5.5 buffer (FIG. 2A), one month.
Assay [4] addresses T1, human factor D. Kind of assay: SPR, captured Fab, fD injected. Background: Surface plasmon resonance follows binding to a sensor surface in real time, without labels.

T1 sequence (P00746 26-253 limits assumed): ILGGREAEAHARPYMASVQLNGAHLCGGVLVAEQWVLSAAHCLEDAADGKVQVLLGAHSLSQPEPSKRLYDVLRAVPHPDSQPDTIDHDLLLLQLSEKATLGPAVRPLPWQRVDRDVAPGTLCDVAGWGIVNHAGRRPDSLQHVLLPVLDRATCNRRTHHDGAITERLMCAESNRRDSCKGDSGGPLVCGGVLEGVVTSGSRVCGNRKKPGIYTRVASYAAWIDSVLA

B1: AFD.v2 (VL-D30E) (Fab, V domains shown)
VH: EVQLVQSGPELKKPGASVKVSCKASGYTFTNYGMNWVRQAPGQGLEWMGWINTYTGETTYADDFKGRFVFSLDTSVSTAYLQISSLKAEDTAVYYCEREGGVNNWGQGTLVTVSS
VL: DIQVTQSPSSLSASVGDRVTITCITSTDIEDDMNWYQQKPGKVPKLLISGGNTLRPGVPSRFSGSGSGTDFTLTISSLQPEDVATYYCLQSDSLPYTFGQGTKVEIKR
notes: Fab variant of aFD.WT; also called D30E (AFD.v2)
What is called Kd is a measure of binding affinity in units of concentration. A higher Kd goes with weaker binding. On to B1, for which the loss in binding is about 20% in the assay with human factor D [1] and about 40% in the assay with human factor D [3]. Besides, the Kd in the assay with human factor D [2] was at most 0.01 nM.

B2: AFD.v6 (TM; VL-D30E:D31S VH-D62E) (Fab, V domains shown)
VH: B1 VH with D62E
VL: B1 VL with D31S
notes: Fab variant of aFD.WT; also called TM (AFD.v6)
Consider B2, for which the loss in binding is about 20% with human factor D [1] and about 40% with human factor D [3]. In addition, the Kd with human factor D [2] was at most 0.01 nM.

B3: AFD.v15 (SIESD.N103S.D92E; VL-D28S:D30E:D31S:D92E VH-D62E:N103S) (Fab, V domains shown)
VH: B1 VH with D62E, N103S
VL: B1 VL with D28S, D31S, D92E
notes: Fab variant of aFD.WT
On to B3, for which the Kd with human factor D [2] turned out to be 0.102 nM. In the assay with human factor D [4], the “fold decrease in affinity against SIESD.N103S (AFD.v14)” value was 4 fold.

(Values after patent US20170143843A1 (Genentech, published 2017).)
